± gives the uncertainty stated by the source.
Experiment: amyloid nucleation score (Sup35N fusion, yeast selection) (log enrichment); library NNK1; higher = more nucleation; inactive = no reads after selection
Summary of the method: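 Three technical output replicates were used for random libraries. Psi-negative yeast expressing peptides of 20 random codons fused to Sup35N were induced with 100 μM copper sulfate for 24 hours and grown 7 days at 30°C on medium lacking adenine and uracil, and input and output plasmid inserts were Illumina-sequenced, excluding sequences with under 100 input reads. The nucleation score is the DiMSum log enrichment of output over input reads, centred on the mode score of non-aggregating sequences.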

| Substance | amyloid nucleation score |
| --- | --- |
| CMAFVFKTCFVFRCNVGKCA | 0.527 ± 0.28 |
| CMPCSDFGSLWVAMDMNCFR | 4.1 ± 0.085 |
| CMSSAALSRLHM | -0.605 ± 1.1 |
| CMYTEACNWWGKYNCVGRQL | 0.235 ± 0.32 |
| CNCAGDLYAVRLYDGGCSSL | -0.006 ± 0.46 |
| CNCVWRCWV | 1.14 ± 0.78 |
| CNELI | inactive |
| CNKWRYSFVCIPGISRQ | 2.22 ± 0.091 |
| CNYTSPPLSVKDRASLCHTN | -0.301 ± 0.93 |
| CPLTGDRTAVRHMRKSAFAE | -0.525 ± 0.4 |
| CPRVKAHVRKNVFFSLVMSL | 0.296 ± 0.44 |
| CPRYLATNIFHAGECVNHSR | -1.08 ± 2.7 |
| CPVNDMGVWGKMACWNNRV | -0.691 ± 0.54 |
| CQEKRSFPVNMNRDIPCLSS | 0.193 ± 1.5 |
| CQIFELLSNVRVTLLIYNSG | 1.41 ± 0.19 |
| CQLSNTSIACSLYNLHCRSW | 4.42 ± 0.13 |
| CQSGMSDDEGGQGRFVKCMG | 0.114 ± 0.51 |
| CRATTP | 0.282 ± 0.49 |
| CRCFGRFLVITSI | inactive |
| CRCYNWFRWSLMS | -0.07 ± 0.26 |
| CRDVY | 1.92 ± 0.51 |
| CRIQFSSVRMDDSCAQGRKD | 0.504 ± 0.67 |
| CRLHVNGLVIVCASWKCGA | 3.76 ± 0.1 |
| CRPVGSTVVSVDNGTS | -0.188 ± 0.37 |

| Substance | amyloid nucleation score |
| --- | --- |
| CRQVFLFLVVPKYYNRMLST | -0.251 ± 0.31 |
| CRRNGGTLMAGE | 1.21 ± 0.76 |
| CRRPEWCEWQGLQTEE | 0.266 ± 0.83 |
| CRSGYRFLRRRAGLTVMR | -0.413 ± 1.5 |
| CRSSVLRSVCINNLSKCSLV | inactive |
| CRTCRNQRMKDKSELSWLMS | -0.589 ± 0.6 |
| CRTTHQALRWIHMDYYYSWV | -0.327 ± 0.31 |
| CRVPIRCRGDLLSLRAVRFR | 1.88 ± 0.14 |
| CSDSNIPLHNHSWGTSVVDN | 1.31 ± 0.63 |
| CSENT | -0.875 ± 0.52 |
| CSFYHVFRCSVGFDVFFSTD | -0.259 ± 0.41 |
| CSGCQARIWALDRRRRVEVS | 0.213 ± 0.69 |
| CSGLNVSLSRRQVVVLSV | -0.632 ± 0.33 |
| CSHANETW | 0.593 ± 0.55 |
| CSKIVYPCSTFTSLFYLFLP | -0.614 ± 0.8 |
| CSLNLNCVS | 3.76 ± 0.13 |
| CSLTKQRCYFEQLMSGPPCL | -0.329 ± 0.35 |
| CSNDMGEQWWEDRYCTGKWD | -0.204 ± 0.38 |
| CSPVYIEFRLRQVFVARA | 1.26 ± 0.76 |
| CSVKCKTRCVYRFMESKWF | -0.021 ± 0.32 |
| CSYPVECSGSMYVSEKTSIF | inactive |
| CTAQTSCILW | 0.2 ± 0.29 |
| CTFSSWRESGFWTSLIHGYL | -0.218 ± 0.36 |
| CTLSYSCFLVVLSFYGQSSF | 0.366 ± 0.24 |

| Substance | amyloid nucleation score |
| --- | --- |
| CTRFKGFAWTSMLRL | 0.21 ± 0.75 |
| CVCLSVARLDYADIFVWTFM | 2.28 ± 0.13 |
| CVCYRTDRVARTGCNEPSMQ | 0.177 ± 0.59 |
| CVDRQFAAVRQVTTIQTWCG | 0.983 ± 0.26 |
| CVFRCVLVKWSVNMVLLLWF | 0.536 ± 0.3 |
| CVIDRWGDIYSNHEGNRSLL | -0.025 ± 0.32 |
| CVKERELIFFWYVVRSEYDL | -0.485 ± 0.47 |
| CVLCKQRFTILMQRWLVRK | 0.961 ± 0.61 |
| CVNLFSLLFWTLAIRCLNFR | -0.025 ± 0.49 |
| CVPDGKFRSKRIPGRNFPLL | 0.278 ± 0.42 |
| CVTAAEM | 0.762 ± 0.41 |
| CWCGVTVCV | -0.276 ± 0.59 |
| CWCMFCTASL | 7.637 ± 0.064 |
| CWGLRLLSFVRRLV | 0.749 ± 1 |
| CWVCNEKRAFRRPVSNQLRV | -0.146 ± 0.85 |
| CYCNEKIVTMRAIDIVRFTC | -0.556 ± 0.23 |
| CYHSKFAVAYQSRICWPWRD | 1.26 ± 0.67 |
| CYLLQWTSFCQQAFSNEMGW | 0.267 ± 0.67 |
| CYNNSCDKWGWASM | 1.22 ± 0.53 |
| CYSRAYEEARSAI | 1.21 ± 0.76 |
| CYVKTYKIKSLRR | -0.07 ± 1.4 |
| CYVMLINAEND | -0.796 ± 1.4 |

— the supplement of paper PMC12042874
